From the supplement of paper PMC9170038 come the findings set out here.

The subject of the series is MS2 coat protein. Nature of the series: apparent KD of MS2 coat protein; designed switch direction (-1 OFF switch, 1 ON switch): -1; higher = weaker reporter binding. In short, it runs like this: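 Designed RNA switches with common flanks were made on Illumina chips by stalled E. coli RNA polymerase. Titration with SNAP-549-labelled MS2 coat protein doubled from 0.7 or 1.5 nM up to 3 µM. Apparent KD is each design's median over clusters after curve-fitting normalised fluorescence.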

The mark [1] stands for this setting: input ligand: microRNA oligo, concentration not stated.
Where [2] appears, read: Eterna round: R95, input ligand: FMN 200 uM.
Where [3] appears, read: Eterna round: R95, input ligand: microRNA oligo, concentration not stated.
Setting [4] is: Eterna round: R95, input ligand: none.

As to “ACAAGAAUAGGAUAUACAACAUGCCAGCUUCUUUACAACGCACAUGAGGAUCACCCAUGUAGAAGGGUUCUCUG [Exclusion-2-#14] (Eterna round: R97, puzzle: Exclusion 2)”, the “apparent KD of MS2 coat protein” value (input ligand: FMN 200 uM) stood at 360 nM and the “apparent KD of MS2 coat protein” value (input ligand: none) amounted to 329 nM.

Regarding “ACAAGCUAAAUCAUAUCUUACAUGAGGAUCACCCAUGUUUUUGCAAUUAUGUUUGGGCUCUUUUGUGCUCGUCUUAU [JR_STOV1_Sub050] (Eterna round: R97, puzzle: Sensor, turn-off variant 1)”, the “apparent KD of MS2 coat protein” value runs as follows: (input ligand: FMN 200 uM) 16.1 nM; (input ligand: none) 17.6 nM.

Consider “ACAAGCUCUGUUGGGUGGUACAUGAGGAUCACCCAUGUUUUGCUCGUCUUGUGGGCCCGGGCCCGCGGCCCGGGCCC [-41.7, -69.7, A 12%] (Eterna round: R97, puzzle: Sensor, turn-off variant 1)”, for which the “apparent KD of MS2 coat protein” value was 513 nM (input ligand: FMN 200 uM) and 807 nM (input ligand: none).

For the sequence “ACAAGCUUAAAAGGUGAUAACAUGAGGAUCACCCAUGUUCGUCUUAUAAAAAUAAAAAUAAAAAAUAAAAAAUAAAA [Sensor V2: 61] (Eterna round: R96, puzzle: Sensor v2, turn-off variant)”, the “apparent KD of MS2 coat protein” value is, setting by setting: (input ligand: FMN 200 uM) 23.1 nM; under setting [1], 114 nM; (input ligand: none) 24.2 nM.

As for “ACAAGCUUAAUCAGUAAGAACAUGAGGAUCACCCAUGUAAAAGGGAAGACAAUUGGGUUAUUUAAAGCUCGUCUUAU [JR_STOV1_Sub015] (Eterna round: R97, puzzle: Sensor, turn-off variant 1)”, the “apparent KD of MS2 coat protein” value turned out to be 62.7 nM (input ligand: FMN 200 uM) and 111 nM (input ligand: none).

For “ACAAGCUUGUAAUGAUUGAACAUGAGGAUCACCCAUGUAAAUGGAAGAACCAAUUGGAUAAGAUAAACUCGUCUUAU [JR_STOV1_Sub004] (Eterna round: R97, puzzle: Sensor, turn-off variant 1)”, the “apparent KD of MS2 coat protein” value reads like this: (input ligand: FMN 200 uM) 107 nM; (input ligand: none) 114 nM.

“ACAAGCUUUUAGAUUCUUAACAUGAGGAUCACCCAUGUGCUCGUCUUAUUGGCCGGCCGGCCGCCGGAAAAGCUUGU (Eterna round: R97, puzzle: Sensor, turn-off variant 1)”: the “apparent KD of MS2 coat protein” value by setting is: (input ligand: FMN 200 uM) 24.9 nM; (input ligand: none) 25.3 nM.

Regarding “ACAAGCUUUUAGAUUUUCAACAUGAGGAUCACCCAUGUUCGUCUUGUGCUAGUGCGAGUGCGGUGUACUCGUAUUAG [JL TOV1 3.82 sellena mod] (Eterna round: R97, puzzle: Sensor, turn-off variant 1)”, the “apparent KD of MS2 coat protein” value reads like this: (input ligand: FMN 200 uM) 18.5 nM; (input ligand: none) 18.4 nM.

Regarding “ACAAGCUUUUAGAUUUUCAACAUGAGGAUCACCCAUGUUCGUCUUGUGCUCGGGCUUGGGCGGUGUCCGGGUUUGGG [JL TOV1 3.77 sellena mod] (Eterna round: R97, puzzle: Sensor, turn-off variant 1)”, the “apparent KD of MS2 coat protein” value is, setting by setting: (input ligand: FMN 200 uM) 33 nM; (input ligand: none) 34.7 nM.

Turning to “ACAAGCUUUUGCUCGUCUUACAUGAGGAUCACCCAUGUCGGAUGAUCGCUUGCGUCCGGCGUCUGAGCCGUGACGGU [Sensor, turn off variant MOD of sellena. cleaned up dot.] (Eterna round: R97, puzzle: Sensor, turn-off variant 1)”, the “apparent KD of MS2 coat protein” value amounted to 15.3 nM (input ligand: FMN 200 uM) and 15 nM (input ligand: none).

Take “ACAAGCUUUUGCUCGUCUUACAUGAGGAUCACCCAUGUCGGGAGCAUGCAUACGUCCAGCAUCUGGACCGUAGCAGA [-25.7, -49.8 kcal, 25% A] (Eterna round: R97, puzzle: Sensor, turn-off variant 1)”: the “apparent KD of MS2 coat protein” value by setting is: (input ligand: FMN 200 uM) 16.3 nM; (input ligand: none) 18.1 nM.

With “ACAAGCUUUUUCGUGGGUGACAUGAGGAUCACCCAUGUUUGCCACGUCUUGUGGGCCCGGGCCCGCGGCCCGGGCCC [-44.6, -64.9, A 13%] (Eterna round: R97, puzzle: Sensor, turn-off variant 1)”, the “apparent KD of MS2 coat protein” value is, setting by setting: (input ligand: FMN 200 uM) 45.8 nM; (input ligand: none) 47.1 nM.

Turning to “ACAAGCUUUUUGCUCGGCUACAUGAGGAUCACCCAUGUUGUGUGUUAUUGUUUUUGAUUGUUCGUGCGCAGCAGGUA [JR_SV3TOV1_Sub073] (puzzle: Sensor v3, turn-off variant 1)”, the “apparent KD of MS2 coat protein” value is, setting by setting: under setting [2], 71 nM; under setting [3], 29.4 nM; under setting [4], 112 nM.

With “ACAAGCUUUUUGCUCGUCGAGUAGAAACGUGAGAGCGAGACAUGAGGAUCACCCAUGUAAAGGCAGUAGGUGGAGAU [JR_SV3TOV2_Sub025] (puzzle: Sensor v3, turn-off variant 2)”, the “apparent KD of MS2 coat protein” value reads like this: under setting [2], 33.2 nM; under setting [3], 43.2 nM; under setting [4], 33.9 nM.

For the sequence “ACAAGCUUUUUGCUCGUCUACAUGAGGAUCACCCAUGUAGUGAGAUAGUGGUGAAGAUAGAAUGAGCGUAGUAGGUA [JR_SV3TOV1_Sub070] (puzzle: Sensor v3, turn-off variant 1)”, the “apparent KD of MS2 coat protein” value under setting [2] was 14.5 nM, the “apparent KD of MS2 coat protein” value under setting [3] turned out to be 34.1 nM and the “apparent KD of MS2 coat protein” value under setting [4] was determined as 10.2 nM.

On to “ACAAGCUUUUUGUUCGUCUUAUAAUAUUCUAAGAGGAUAACAUGAGGAUCACCCAUGUAACAAAGACGGACUCAUGU [Sesor Array 14 - Jieux - Sensor v3, turn-off variant 2] (puzzle: Sensor v3, turn-off variant 2)”, for which the “apparent KD of MS2 coat protein” value runs as follows: under setting [2], 13 nM; under setting [3], 139 nM; under setting [4], 11.7 nM.

As for “ACAAGCUUUUUGUUCGUCUUAUACACUCCUAAGAGGACAACAUGAGGAUCACCCAUGUAACAAAGACGGACUCAUGU [Sesor Array 11 - Jieux - Sensor v3, turn-off variant 2] (puzzle: Sensor v3, turn-off variant 2)”, the “apparent KD of MS2 coat protein” value is, setting by setting: under setting [2], 17.7 nM; under setting [3], 129 nM; under setting [4], 12 nM.

As for “ACAAGCUUUUUGUUCGUCUUAUACACUCCUAAUAGGACAACAUGAGGAUCACCCAUGUAACAAAGACGAACUCAUGU [Sesor Array 9 - Jieux - Sensor v3, turn-off variant 2] (puzzle: Sensor v3, turn-off variant 2)”, the “apparent KD of MS2 coat protein” value came out at 11.6 nM under setting [2], 169 nM under setting [3] and 9.63 nM under setting [4].

Consider “ACAAUGUUAGGAUAUCUGACAAUUAGUCUCGACUAGUCGAAAGAGAAGGAACAUGAGGAUCACCCAUGUAGAUC [EX4 #73] (Eterna round: R97, puzzle: Exclusion 4)”, for which the “apparent KD of MS2 coat protein” value (input ligand: FMN 200 uM) was determined as 144 nM and the “apparent KD of MS2 coat protein” value (input ligand: none) turned out to be 37.4 nM.

For “ACAAUUAUGACAGGAUAUAGUUUUUGUUGGUCACUAGAAGGGUCUAUGCACAUGAGGAUCACCCAUGUUCUUUUUAUAUGCGAU [JR_ExcNG1_Sub018] (Eterna round: R96, puzzle: Exclusion NG 1)”, the “apparent KD of MS2 coat protein” value amounted to 31.8 nM (input ligand: FMN 200 uM), 36.2 nM under setting [1] and 44.4 nM (input ligand: none).

With “ACACAAGCCCUUUGCUCGUUUUAAUACAGCGGGCUCUUCACAUGAGGAUCACCCAUGUAGGCCUUGUUCCAAGGCCG [Rebileve] (puzzle: Sensor v3, turn-off variant 2)”, the “apparent KD of MS2 coat protein” value was found to be 20.4 nM under setting [2], 23.6 nM under setting [3] and 20 nM under setting [4].

For the sequence “ACACAGCAAGGAUAUACAUGAGGAUCACCCAUGUGGUGGCAGUUACGGUAGGACUAGUGUAGAAGGUGCAGUGG [EX3 #30] (Eterna round: R97, puzzle: Exclusion 3)”, the “apparent KD of MS2 coat protein” value by setting is: (input ligand: FMN 200 uM) 487 nM; (input ligand: none) 668 nM.

“ACACAGCGAGGAUAUACAUGAGGAUCACCCAUGUGGCGGCCGUUACGGUAGGACUAGUGUAGAAGGCGCAUUGG [EX3 #34] (Eterna round: R97, puzzle: Exclusion 3)”: the “apparent KD of MS2 coat protein” value is, setting by setting: (input ligand: FMN 200 uM) 203 nM; (input ligand: none) 247 nM.

For the sequence “ACACAGCGAGGAUAUACAUGAGGAUCACCCAUGUGGUGGCAGUUACGGUAGGACUAGUGUAGAAGGUGCCGUGG [EX3 #28] (Eterna round: R97, puzzle: Exclusion 3)”, the “apparent KD of MS2 coat protein” value was found to be 600 nM (input ligand: FMN 200 uM) and 588 nM (input ligand: none).

Take “ACACUGCUAGGAUAUGCAGCGGCAUCAGCCGAAAGUCCCUCACAUGAGGAUCACCCAUGUAGAAGGAGCAAGAC [Eternabot (Original) Solution 13] (Eterna round: R97, puzzle: Exclusion 2)”: the “apparent KD of MS2 coat protein” value runs as follows: (input ligand: FMN 200 uM) 26.9 nM; (input ligand: none) 26.6 nM.

On to “ACAUAUGUUAGAGGAUCCUACAUGAGGAUCACCCAUGUCGGUAUAAAACUCACACGGUCAACGCUUUUUGUUCGCUA [Eternabot (L1) Solution 2] (Eterna round: R97, puzzle: Sensor, turn-off variant 1)”, for which the “apparent KD of MS2 coat protein” value reads like this: (input ligand: FMN 200 uM) 30.5 nM; (input ligand: none) 34.7 nM.

Take “ACAUGACAUGAGGAUCACCCAUGUUAGGAUAUCCCUCGUCCUGACUGAACGUCGGAAUGGAGAAGGAGCAUGGC [Eternabot (L2) Solution 88] (Eterna round: R97, puzzle: Exclusion 1)”: the “apparent KD of MS2 coat protein” value by setting is: (input ligand: FMN 200 uM) 47.1 nM; (input ligand: none) 45.8 nM.

Regarding “ACAUGAGGAUCACCCAUGUAAACAUAAUGGCUCAUGUAGAGUCAGGAUAUGCGUGGCGAACAAGCGCAGAAGGGACAAGACUGG [Deportation 25 - Jieux - Exclusion NG 3] (Eterna round: R96, puzzle: Exclusion NG 3)”, the “apparent KD of MS2 coat protein” value (input ligand: FMN 200 uM) worked out at 30 nM, the “apparent KD of MS2 coat protein” value under setting [1] was determined as 19.6 nM and the “apparent KD of MS2 coat protein” value (input ligand: none) was determined as 27.2 nM.
